# Results taken from US20260217813A1 (published 2026).
# T1: IL-12 (Human IL12 (His Tag)), Sino Biological Cat. No. CT-050-H08H-20 (human, UniProt P29460 23-328; P29459 23-219)
# T1 construct: Bought His-tagged p35/p40 heterodimer
# T1 sequence (looked up) 1: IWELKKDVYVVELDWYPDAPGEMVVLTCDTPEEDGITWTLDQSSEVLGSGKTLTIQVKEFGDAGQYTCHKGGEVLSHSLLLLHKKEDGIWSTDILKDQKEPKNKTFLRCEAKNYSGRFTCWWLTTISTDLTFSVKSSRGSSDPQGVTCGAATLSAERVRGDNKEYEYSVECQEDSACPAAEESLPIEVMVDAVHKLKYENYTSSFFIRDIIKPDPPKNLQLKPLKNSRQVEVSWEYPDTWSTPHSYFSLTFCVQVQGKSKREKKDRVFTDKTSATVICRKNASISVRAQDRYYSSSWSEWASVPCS
# T1 sequence (looked up) 2: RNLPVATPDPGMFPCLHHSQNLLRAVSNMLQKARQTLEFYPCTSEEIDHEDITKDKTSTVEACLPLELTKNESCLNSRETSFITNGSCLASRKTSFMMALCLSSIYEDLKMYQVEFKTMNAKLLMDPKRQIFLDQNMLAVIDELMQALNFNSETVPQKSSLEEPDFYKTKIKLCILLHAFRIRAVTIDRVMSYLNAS
# Molecular target: T1, IL-12 (Human IL12 (His Tag)), Sino …
# Assay: FACS competition, IL12-His (40 nM mixed 1:1) on 293T-IL-12RB1&IL-23R cells
# Protocol: 200 μL of 1% PBSA was added into each sample, and the mixture was centrifuged at 1200 rpm for 5 min to discard the supernatant. According to experiment design, correspondingly diluted antibody (highest final concentration of 60 μg/mL, 3-fold dilution, 8 concentrations in total) and IL12-His (Sino Biological, Cat. No.: CT-050-H08H-20) (40 nM) were mixed at a ratio of 1:1, and a blank control was set. The mixture of antibody and IL12 was incubated on ice for 30 min and then added to the cell precipitate at 100 μL/sample. The resulting mixture was well mixed and incubated on ice for 60 min. 200 μL of 1% PBSA was added, and the mixture was centrifuged at 1200 rpm for 5 min to discard the supernatant, and then washed twice. THETM His tag antibody (FITC) (Genscript, Cat. No.: A01620) was diluted at a ratio of 1:500 and added to each tube at 100 μL. The mixture was well mixed and incubated on ice for 40 min in the absence of light. 200 μL of 1% PBSA was added, and the mixture was centrifuged at 1200 rpm for 5 min to discard the supernatant, and then washed twice. 1% PBSA was added at 200 μL/tube, and the cells were resuspended and transferred to a flow cytometry tube for testing.
row,Binder,EC50
1,"ustekinumab (trade name Stelara) (antibody, V domains shown) VH: EVQLVQSGAEVKKPGESLKISCKGSGYSFTTYWLGWVRQMPGKGLDWIGIMSPVDSDIRYSPSFQGQVTMSVDKSITTAYLQWNSLKASDTAMYYCARRRPGQGYFDFWGQGTLVTVSS VL: DIQMTQSPSSLSASVGDRVTITCRASQGISSWLAWYQQKPEKAPKSLIYAASSLQSGVPSRFSGSGSGTDFTLTISSLQPEDFATYYCQQYNIYPYTFGQGTKLEIK",1.58 µg/mL

# Molecular target: T1, IL-12 (Human IL12 (His Tag)), Sino …
# Assay: FACS competition, IL-12-His 20 nM on 293T-IL-12RB1&IL-23R cells
# Protocol: 200 μL of 1% PBSA was added into each sample, and the mixture was centrifuged at 700×g for 5 min to discard the supernatant. According to experiment design, correspondingly diluted antibody (highest final concentration of 30 μg/mL, 3-fold dilution, 8 concentrations in total) and human IL-12 (Sino Biological, Cat. No.: CT-050-H08H-20) (final concentration of 20 nM) were mixed at a ratio of 1:1, and a blank control was set. The mixture of antibody and human IL12 was incubated on ice for 30 min and then added to the cell precipitate at 100 μL/sample. The resulting mixture was well mixed and incubated on ice for 60 min. 200 μL of 1% PBSA was added, and the mixture was centrifuged at 700×g for 5 min to discard the supernatant, and then washed twice. Alexa Fluor® 488 anti-His tag antibody (Biolegend, Cat. No.: 652509) was diluted at a ratio of 1:400 and added to each tube at 100 μL. The mixture was well mixed and incubated on ice for 40 min in the absence of light. 200 μL of 1% PBSA was added, and the mixture was centrifuged at 700×g for 5 min to discard the supernatant, and then washed twice. 1% PBSA was added at 200 μL/tube, and the cells were resuspended and transferred to a flow cytometry tube for testing.
row,Binder,EC50
1,"H5L10 (antibody, human IgG1, kappa, V domains shown, IgG1/kappa) VH: EVQLVQSGAEVKKPGESLKISCQSSGYSFTTYWIGWVRQMPGQGLEWIGIMSPVDSDIRYNPMFRGQVTMSVDKSSSTAYLQWSSLKASDTAMYYCARRRPGQGYFDFWGQGTMVTVSS VL: EIVLTQSPATLSASPGERATISCRASQSVGSWLAWYQQKPGQAPRSLIYAASNLQSGIPARFSGSGSGTDFTLTISSLEPEDFAVYYCQQYNIYPYTFGQGTRLEIKR",0.331 µg/mL
2,"H5L14 (antibody, human IgG1, kappa, V domains shown, IgG1/kappa) VH: EVQLVQSGAEVKKPGESLKISCQSSGYSFTTYWIGWVRQMPGQGLEWIGIMSPVDSDIRYNPMFRGQVTMSVDKSSSTAYLQWSSLKASDTAMYYCARRRPGQGYFDFWGQGTMVTVSS VL: EIVLTQSPATLSASPGERATISCRASQSVSSWLAWYQQKPGQAPRSLIYAASNLQSGIPARFSGSGSGTDFTLTISSLEPEDFAVYYCQQYNIYPFTFGQGTRLEIKR",0.532 µg/mL
3,"H5L12 (antibody, human IgG1, kappa, V domains shown, IgG1/kappa) VH: EVQLVQSGAEVKKPGESLKISCQSSGYSFTTYWIGWVRQMPGQGLEWIGIMSPVDSDIRYNPMFRGQVTMSVDKSSSTAYLQWSSLKASDTAMYYCARRRPGQGYFDFWGQGTMVTVSS VL: EIVLTQSPATLSASPGERATISCRASQSVSSWLAWYQQKPGQAPRSLIYAASNRQSGIPARFSGSGSGTDFTLTISSLEPEDFAVYYCQQYNIYPYTFGQGTRLEIKR",0.317 µg/mL

# Now from value to binder:
row,EC50,Binder
1,0.377 µg/mL,"ustekinumab (trade name Stelara) (antibody, V domains shown) VH: EVQLVQSGAEVKKPGESLKISCKGSGYSFTTYWLGWVRQMPGKGLDWIGIMSPVDSDIRYSPSFQGQVTMSVDKSITTAYLQWNSLKASDTAMYYCARRRPGQGYFDFWGQGTLVTVSS VL: DIQMTQSPSSLSASVGDRVTITCRASQGISSWLAWYQQKPEKAPKSLIYAASSLQSGVPSRFSGSGSGTDFTLTISSLQPEDFATYYCQQYNIYPYTFGQGTKLEIK"
2,0.414 µg/mL,"H5L11 (antibody, human IgG1, kappa, V domains shown, IgG1/kappa) VH: EVQLVQSGAEVKKPGESLKISCQSSGYSFTTYWIGWVRQMPGQGLEWIGIMSPVDSDIRYNPMFRGQVTMSVDKSSSTAYLQWSSLKASDTAMYYCARRRPGQGYFDFWGQGTMVTVSS VL: EIVLTQSPATLSASPGERATISCRASQSVSSWLAWYQQKPGQAPRSLIYSASNLQSGIPARFSGSGSGTDFTLTISSLEPEDFAVYYCQQYNIYPYTFGQGTRLEIKR"
